In the Human Domainome abundance scans (Beltran et al. 2025):
± gives the uncertainty stated by the source.

B1: Zinc finger homeobox protein 3, residues 2147 to 2202; numbered along this chain, Q15911 (parent)
chain: RPRTRITDDQLRVLRQYFDINNSPSEEQIKEMADKSGLPQKVIKHWFRNTLFKERQ

Variants of: B1
Assay: abundance fitness (aPCA) (normalised: wild type 0, dead -1); higher = more abundant; growth selection in yeast, the domain comes from the species named
Conditions: Homo sapiens
I29H showed an abundance fitness of -0.282 ± 0.19.
Variant D34F has an abundance fitness of 0.013 ± 0.18.
For S36F, the abundance fitness was -0.099 ± 0.1.
Variant R15Y has an abundance fitness of -0.127 ± 0.13.
In the case of Q28I, the abundance fitness is reported as -0.033 ± 0.13.
E27C gave an abundance fitness of -0.019 ± 0.094.
For W46T, the abundance fitness was -0.555 ± 0.16.
For T50I, the abundance fitness was -0.262 ± 0.15.
Work on E27W yielded an abundance fitness of -0.341 ± 0.079.
P24E gave an abundance fitness of -0.673 ± 0.11.
Work on E27Q yielded an abundance fitness of 0.034 ± 0.092.
For S36A, the abundance fitness was 0.045 ± 0.086.
Variant S36R has an abundance fitness of -0.828 ± 0.077.
In the case of L38D, the abundance fitness is reported as -1.02 ± 0.18.
For I43D, the abundance fitness was -1.12 ± 0.23.
With D34I the abundance fitness was -0.088 ± 0.19.
L51R showed an abundance fitness of -0.013 ± 0.07.
D19G showed an abundance fitness of -0.125 ± 0.061.
Variant N49A has an abundance fitness of -0.061 ± 0.11.
With R55H the abundance fitness was 0.013 ± 0.29.
With A33L the abundance fitness was -0.511 ± 0.15.
Variant L14S has an abundance fitness of -0.998 ± 0.11.
In the case of N21P, the abundance fitness is reported as -0.335 ± 0.11.
Work on V13I yielded an abundance fitness of 0.097 ± 0.073.
Work on R55G yielded an abundance fitness of -0.054 ± 0.075.
L14T showed an abundance fitness of -0.942 ± 0.12.
Variant R1N has an abundance fitness of 0.078 ± 0.32.
Work on I20G yielded an abundance fitness of -0.045 ± 0.063.
In the case of M32L, the abundance fitness is reported as -0.181 ± 0.083.
In the case of G37W, the abundance fitness is reported as -0.535 ± 0.1.
Q10C gave an abundance fitness of -0.381 ± 0.098.
With F47C the abundance fitness was -0.169 ± 0.11.
For R12N, the abundance fitness was -0.061 ± 0.11.
Work on E26V yielded an abundance fitness of -0.082 ± 0.071.
S25W showed an abundance fitness of -0.901 ± 0.1.
Work on R5W yielded an abundance fitness of -0.054 ± 0.11.
Variant P24A has an abundance fitness of -0.606 ± 0.082.
In the case of S25R, the abundance fitness is reported as -0.202 ± 0.071.
With A33M the abundance fitness was -0.083 ± 0.25.
For E54R, the abundance fitness was -0.101 ± 0.079.
For R5L, the abundance fitness was 0.143 ± 0.07.
K30C showed an abundance fitness of -0.217 ± 0.12.
For W46A, the abundance fitness was -0.63 ± 0.13.
K41P showed an abundance fitness of -0.259 ± 0.12.
T7M showed an abundance fitness of -0.162 ± 0.094.
D8V gave an abundance fitness of -0.05 ± 0.065.
In the case of Y17T, the abundance fitness is reported as -0.369 ± 0.093.
With R55D the abundance fitness was 0.114 ± 0.2.
Variant M32Q has an abundance fitness of -0.774 ± 0.12.
R48P gave an abundance fitness of -0.461 ± 0.14.
F47K gave an abundance fitness of -0.774 ± 0.17.
For D19C, the abundance fitness was -0.094 ± 0.086.
D34N gave an abundance fitness of 0.082 ± 0.15.
Work on T4R yielded an abundance fitness of -0.393 ± 0.086.
Y17E gave an abundance fitness of -0.168 ± 0.082.
In the case of A33Y, the abundance fitness is reported as -0.299 ± 0.25.
Variant R5A has an abundance fitness of -0.051 ± 0.076.
K41E showed an abundance fitness of 0.01 ± 0.11.
With L11G the abundance fitness was -0.088 ± 0.063.
K53E gave an abundance fitness of -0.006 ± 0.1.
Variant P39T has an abundance fitness of -0.031 ± 0.099.
K35D gave an abundance fitness of -0.297 ± 0.13.
Work on L11A yielded an abundance fitness of -0.019 ± 0.066.
Variant G37S has an abundance fitness of -0.151 ± 0.087.
I43C showed an abundance fitness of -0.349 ± 0.2.
Variant Q16D has an abundance fitness of -0.025 ± 0.15.
Variant L51K has an abundance fitness of 0.244 ± 0.13.
V42T gave an abundance fitness of -0.027 ± 0.13.
For Q28M, the abundance fitness was -0.168 ± 0.1.
With V13F the abundance fitness was -0.012 ± 0.072.
With R48H the abundance fitness was -0.064 ± 0.21.
With P24N the abundance fitness was -0.873 ± 0.18.
Variant S23P has an abundance fitness of -0.21 ± 0.15.
K30L showed an abundance fitness of -0.239 ± 0.088.
D9G showed an abundance fitness of -0.068 ± 0.062.
Variant E54H has an abundance fitness of 0.085 ± 0.25.
Work on D34W yielded an abundance fitness of -0.318 ± 0.093.
Work on I43S yielded an abundance fitness of -0.987 ± 0.14.
E31P gave an abundance fitness of -1.03 ± 0.15.
For D19Y, the abundance fitness was 0.044 ± 0.12.
In the case of T7F, the abundance fitness is reported as -0.432 ± 0.17.
Work on R15L yielded an abundance fitness of -0.244 ± 0.066.
K35R gave an abundance fitness of -0.175 ± 0.075.
Variant S23V has an abundance fitness of -0.216 ± 0.072.
K53N showed an abundance fitness of -0.041 ± 0.14.
With A33E the abundance fitness was 0.038 ± 0.18.
A33C gave an abundance fitness of -0.158 ± 0.16.
Work on P2I yielded an abundance fitness of 0.105 ± 0.15.
Q40G gave an abundance fitness of -0.073 ± 0.074.
L14R gave an abundance fitness of -0.982 ± 0.083.
Work on Q40C yielded an abundance fitness of -0.118 ± 0.11.
With K41F the abundance fitness was -0.274 ± 0.25.
With D9Q the abundance fitness was 0.018 ± 0.11.
Variant K35G has an abundance fitness of -0.402 ± 0.084.
With D8R the abundance fitness was -0.226 ± 0.064.
Q56H showed an abundance fitness of -0.5 ± 0.43.
Work on I43T yielded an abundance fitness of -0.54 ± 0.13.
Variant I20A has an abundance fitness of 0.009 ± 0.074.
In the case of T50G, the abundance fitness is reported as -0.187 ± 0.086.
For I6Q, the abundance fitness was -0.529 ± 0.11.
S23E gave an abundance fitness of -0.123 ± 0.093.
D9T showed an abundance fitness of 0.038 ± 0.081.
Variant K35L has an abundance fitness of -0.163 ± 0.08.
In the case of R5E, the abundance fitness is reported as 0.155 ± 0.12.
Variant Q16T has an abundance fitness of -0.012 ± 0.091.
Variant S36N has an abundance fitness of 0.018 ± 0.15.
I20K gave an abundance fitness of -0.081 ± 0.14.
Variant V42W has an abundance fitness of -0.119 ± 0.095.
With R55K the abundance fitness was -0.175 ± 0.16.
For L14D, the abundance fitness was -0.932 ± 0.16.
Variant A33R has an abundance fitness of -0.163 ± 0.096.
Work on Y17C yielded an abundance fitness of -0.204 ± 0.083.
In the case of M32P, the abundance fitness is reported as -1.15 ± 0.2.
E27S showed an abundance fitness of 0.024 ± 0.077.
Variant A33S has an abundance fitness of -0.054 ± 0.14.
Q16K gave an abundance fitness of 0.092 ± 0.093.
Variant K44E has an abundance fitness of -0.146 ± 0.12.
Variant S36T has an abundance fitness of 0.127 ± 0.079.
Variant T50M has an abundance fitness of -0.051 ± 0.24.
R3T showed an abundance fitness of 0.197 ± 0.12.
Variant K53L has an abundance fitness of -0.163 ± 0.085.
R1E gave an abundance fitness of -0.832 ± 0.21.
Work on I6K yielded an abundance fitness of -0.332 ± 0.11.
S23M gave an abundance fitness of -0.035 ± 0.13.
For A33G, the abundance fitness was -0.212 ± 0.12.
S23D showed an abundance fitness of 0.076 ± 0.14.
With Q10I the abundance fitness was -0.464 ± 0.14.
In the case of T4P, the abundance fitness is reported as -0.159 ± 0.13.
Work on I29M yielded an abundance fitness of -0.008 ± 0.1.
Q28Y gave an abundance fitness of -0.385 ± 0.13.
R12D showed an abundance fitness of -0.21 ± 0.093.
Work on I43P yielded an abundance fitness of -1.05 ± 0.21.
Work on T50S yielded an abundance fitness of -0.016 ± 0.12.
With L14F the abundance fitness was -0.064 ± 0.16.
With R55N the abundance fitness was -0.356 ± 0.2.
Work on Q16R yielded an abundance fitness of 0.001 ± 0.062.
Variant S23T has an abundance fitness of 0.102 ± 0.11.
T7N showed an abundance fitness of -0.204 ± 0.11.
R55T gave an abundance fitness of -0.206 ± 0.12.
Work on L38T yielded an abundance fitness of -0.449 ± 0.12.
In the case of F52D, the abundance fitness is reported as -0.098 ± 0.2.
Variant T50V has an abundance fitness of -0.078 ± 0.097.
Variant Q28L has an abundance fitness of -0.205 ± 0.075.
Variant R3W has an abundance fitness of -0.57 ± 0.1.
For K53W, the abundance fitness was -0.299 ± 0.083.
Work on T4S yielded an abundance fitness of -0.191 ± 0.095.
Q56R gave an abundance fitness of 0.166 ± 0.17.
In the case of D8G, the abundance fitness is reported as -0.063 ± 0.062.
Q28G gave an abundance fitness of -0.209 ± 0.066.
D8H showed an abundance fitness of 0.026 ± 0.13.
For N21T, the abundance fitness was 0.152 ± 0.09.
Variant R5F has an abundance fitness of 0.08 ± 0.083.
With A33N the abundance fitness was -0.21 ± 0.25.
K44S gave an abundance fitness of -0.214 ± 0.12.
P2G showed an abundance fitness of -0.005 ± 0.084.
For F18W, the abundance fitness was 0.022 ± 0.077.
R3K gave an abundance fitness of -0.25 ± 0.14.
M32K gave an abundance fitness of -1.03 ± 0.16.
With N22F the abundance fitness was -0.222 ± 0.17.
T4K showed an abundance fitness of -0.16 ± 0.12.
For P39R, the abundance fitness was -0.156 ± 0.082.
In the case of D8Y, the abundance fitness is reported as -0.215 ± 0.098.
In the case of D34P, the abundance fitness is reported as -0.582 ± 0.11.
In the case of P39D, the abundance fitness is reported as -0.015 ± 0.14.
Variant F18L has an abundance fitness of -0.137 ± 0.072.
In the case of D9M, the abundance fitness is reported as -0.082 ± 0.089.
For R12L, the abundance fitness was -0.085 ± 0.064.
